In paper PMC2898518:
Residue numbers refer to the chain shown, from its start.

Legend:
p53 wild-type [1] = target: T1, p53 wild-type (UniProt P04637 1-393); test: filter binding
p53 wild-type [2] = target: T1, p53 wild-type; test: EMSA

T1 sequence (P04637 whole entry): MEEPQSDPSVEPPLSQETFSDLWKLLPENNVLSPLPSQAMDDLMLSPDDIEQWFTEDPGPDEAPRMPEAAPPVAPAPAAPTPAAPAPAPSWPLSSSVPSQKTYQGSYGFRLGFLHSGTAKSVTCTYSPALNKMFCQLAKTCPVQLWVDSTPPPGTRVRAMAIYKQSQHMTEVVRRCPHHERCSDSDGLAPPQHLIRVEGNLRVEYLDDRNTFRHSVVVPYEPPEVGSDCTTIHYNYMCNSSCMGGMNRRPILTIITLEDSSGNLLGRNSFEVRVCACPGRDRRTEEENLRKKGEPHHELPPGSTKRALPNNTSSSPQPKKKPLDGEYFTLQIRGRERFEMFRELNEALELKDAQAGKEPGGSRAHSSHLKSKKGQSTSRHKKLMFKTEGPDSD

B1: p21 site 32-mer (dsDNA)
DNA 1: TAGAGCGAACATGTCCCAACATGTTGGCGTCG
DNA 2: CGACGCCAACATGTTGGGACATGTTCGCTCTA
p53 wild-type [1]
  binding signal: 1 fold (reference)

B2: 66-bp circular wild-type GADD45 (dsDNA)
DNA 1: AGCTGATATCGAATTCTCGAGCAGAACATGTCTAAGCATGCTGGGCTCGAGAATTCCTGCAGCGCT
DNA 2: AGCGCTGCAGGAATTCTCGAGCCCAGCATGCTTAGACATGTTCTGCTCGAGAATTCGATATCAGCT
p53 wild-type [2]
  binding signal: 1 fold (reference)

B3: 66-bp circular mutant GADD45 (dsDNA)
DNA 1: B2 DNA 1 with C27A, G30T, C37A, G40T
DNA 2: B2 DNA 2 with C27A, G30T, C37A, G40T
p53 wild-type [2]
  binding signal: 1 fold (reference)
